Laboratory results taken from US20240383953A1, “NOVEL NAN[…] NANOG PRION-LIKE REPEATS” (BAYLOR COLLEGE OF MEDICINE, priority 2021, published 2024).

What was measured:
[1] = ThT fluorescence aggregation kinetics of NANOG CTD; assay type: physicochemical, human
[2] = Gel-like condensate formation of NANOG CTD; assay type: physicochemical, human; details: absence of crowding agents

B1: NANOG CTD: C-terminal domain construct of human NANOG, contains the WR prion-like domain (protein)
chain: QKNNWPKNSNGVTQKASAPTYPSLYSSYHQGCLVNPTGNLPMWSNQTWNNSTWSNQTQNIQSWSNHSWNTQTWCTQSWNNQAWNSPFYNCGEESLQSCMQFQPNSPASDLEAALEAAGEGLNVIQQTTRYFSTPQTMDLFLNYSMNMQPEDV
- ThT aggregation time constant (1/R) ([1]; 1.2 μM CTD (n=9)): 4.8 ± 0.2 min
- ThT aggregation time constant (1/R) ([1]; 2.4 μM CTD (n=6)): 9.5 ± 0.1 min
- concentration at which gel-like condensates form [2]: 5 µM
